Test results: patent US20230381333A1 (HANMI PHARM, published 2023)
Bridge positions count the residues as written; N and C are the ends. Square brackets hold non-standard residues; d marks the D form. Ends that are not written are not given here. * marks the point of attachment. Acetyl(2-(4-imidazolyl)) = O=C(Cc1c[nH]cn1)*; Aib = CC(C)(N)C(=O)O

B1: triple agonist of SEQ ID NO: 66 (peptide)
peptide: Y[Aib]QGTFTSDYSKYLDECRAKDFVQWLLDHHPSSGQPPPS
modifications: bridge 16-20
B2: triple agonist of SEQ ID NO: 69 (peptide)
peptide: Y[Aib]QGTFTSDYSKCLDERAAKEFVQWLLDHHPSSGQPPPS
modifications: bridge 16-20
B3: triple agonist of SEQ ID NO: 74 (peptide)
peptide: {Acetyl(2-(4-imidazolyl))}-[Aib]QGTFTSDYSKCLDEKRAKEFVQWLLDHHPSSGQPPPS
modifications: bridge 15-19
B4: triple agonist of SEQ ID NO: 7 (peptide)
peptide: H[Aib]QGTFTSDVSKYLDGQAAKEFVAWLLKGC
B5: triple agonist of SEQ ID NO: 70 (peptide)
peptide: Y[Aib]QGTFTSDYSKCLDEKRAKDFVQWLLDHHPSSGQPPPS
modifications: bridge 16-20
B6: triple agonist of SEQ ID NO: 73 (peptide)
peptide: {Acetyl(2-(4-imidazolyl))}-[Aib]QGTFTSDYSKYLDECRAKEFVQWLLDHHPSSGQPPPS
modifications: bridge 15-19
B7: triple agonist of SEQ ID NO: 60 (peptide)
peptide: {Acetyl(2-(4-imidazolyl))}-[Aib]QGTFTSDYSIAMDEKHCKDFVNWLLNTK
modifications: bridge 15-19
B8: triple agonist of SEQ ID NO: 8 (peptide)
peptide: H[Aib]QGTFTSDVSKYLDGQAAQEFVAWLLKGC
B9: triple agonist of SEQ ID NO: 76 (peptide)
peptide: Y[Aib]QGTFTSDYSKYLDEKRAKDFVQWLLDHHPSSGQPPPSC
modifications: bridge 16-20
B10: triple agonist of SEQ ID NO: 67 (peptide)
peptide: Y[Aib]QGTFTSDYSKYLDECAAKDFVQWLLDHHPSSGQPPPS
modifications: also: ring formation (underlined residues), positions not given here
B11: triple agonist of SEQ ID NO: 64 (peptide)
peptide: Y[Aib]QGTFTSDYSKYLDECAAKEFVQWLLDHHPSSGQPPPS
modifications: bridge 16-20
B12: triple agonist of SEQ ID NO: 80 (peptide)
peptide: H[Aib]EGTFTSDYSIAMDEIHQKDFVDWLLAEKC
modifications: bridge 16-20
B13: triple agonist of SEQ ID NO: 61 (peptide)
peptide: {Acetyl(2-(4-imidazolyl))}-[Aib]QGTFTSDYSIAMDEIACKDFVNWLLNTK
modifications: bridge 15-19
B14: triple agonist of SEQ ID NO: 71 (peptide)
peptide: Y[Aib]QGTFTSDYSKYLDERACKDFVQWLLDHHPSSGQPPPS
modifications: bridge 16-20

The binders below were run against human GLP-1 receptor (human, UniProt P43220 24-463) (assay: cell-based or functional assay).

Row | Binder | In vitro activity compared to native-type peptide (%), vs GLP-1 [%]
1 | B1 | 15.8
2 | B2 | 24.3
3 | B3 | 12.9
4 | B4 | 13.7
5 | B5 | 15.1
6 | B6 | 22.6
7 | B7 | 106
8 | B8 | 14.2
9 | B9 | 10.3
10 | B10 | 28.5
11 | B11 | 64.6
12 | B12 | 8.1
13 | B13 | 59.8
14 | B14 | 90.1

These binders were tested against human GCG receptor (human, UniProt P47871 26-477) (assay: cell-based or functional assay).
Chain of human GCG receptor (P47871 26-477): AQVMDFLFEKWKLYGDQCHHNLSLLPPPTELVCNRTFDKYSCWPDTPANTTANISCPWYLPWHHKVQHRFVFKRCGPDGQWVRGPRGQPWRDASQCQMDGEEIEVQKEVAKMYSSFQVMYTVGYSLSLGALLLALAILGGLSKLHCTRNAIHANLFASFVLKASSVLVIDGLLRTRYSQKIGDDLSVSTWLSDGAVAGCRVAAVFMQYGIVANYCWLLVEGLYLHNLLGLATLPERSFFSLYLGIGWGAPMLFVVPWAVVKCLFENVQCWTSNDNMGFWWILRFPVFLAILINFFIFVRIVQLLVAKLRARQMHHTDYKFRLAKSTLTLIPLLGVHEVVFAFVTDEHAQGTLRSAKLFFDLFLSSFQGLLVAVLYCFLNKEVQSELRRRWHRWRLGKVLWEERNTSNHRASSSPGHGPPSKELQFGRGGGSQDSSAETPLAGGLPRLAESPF

Row | Binder | In vitro activity compared to native-type peptide (%), vs Glucagon [%]
15 | B1 | 172
16 | B2 | 9.6
17 | B3 | 0.9
18 | B4 | < 0.1
19 | B5 | 71.3
20 | B6 | 5.4
21 | B7 | < 0.1
22 | B8 | 0.1
23 | B9 | 47.6
24 | B10 | 46.2
25 | B11 | 60.1
26 | B12 | 0
27 | B13 | < 0.1
28 | B14 | 12.7

Each binder was assayed against T1, human GIP receptor (human, UniProt P48546 22-466) (assay: cell-based or functional assay).
T1 sequence (looked up): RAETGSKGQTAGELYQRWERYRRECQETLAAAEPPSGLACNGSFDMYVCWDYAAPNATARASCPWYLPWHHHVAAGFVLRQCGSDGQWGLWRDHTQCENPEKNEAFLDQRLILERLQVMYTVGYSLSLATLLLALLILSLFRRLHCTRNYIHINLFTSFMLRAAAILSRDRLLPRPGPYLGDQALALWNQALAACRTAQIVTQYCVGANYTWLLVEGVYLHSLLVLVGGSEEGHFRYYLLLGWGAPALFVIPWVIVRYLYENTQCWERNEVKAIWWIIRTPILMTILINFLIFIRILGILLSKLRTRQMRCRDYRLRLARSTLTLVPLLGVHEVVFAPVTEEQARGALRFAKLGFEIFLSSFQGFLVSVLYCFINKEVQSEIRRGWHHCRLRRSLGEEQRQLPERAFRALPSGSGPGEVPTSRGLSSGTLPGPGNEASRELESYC

Row | Binder | In vitro activity compared to native-type peptide (%), vs GIP [%]
29 | B1 | 17.2
30 | B2 | 62.8
31 | B3 | 1
32 | B4 | < 0.1
33 | B5 | 64.4
34 | B6 | 3
35 | B7 | 8.2
36 | B8 | < 0.1
37 | B9 | 11.7
38 | B10 | 39.8
39 | B11 | 92.9
40 | B12 | 0.1
41 | B13 | 2.8
42 | B14 | 94.7
